{"source": "patent US20170283834A1", "about": "“Processes for Producing A Fermentation Product Using A Fermenting Organism” (Novozymes A/S, priority 2014, published 2017)", "key": {"host proteases": {"tested_on": "host proteases", "assay": "Cleavage during cultivation, SDS-PAGE of culture supernatants", "parameters": "species or system Aspergillus niger", "experimental": "Aspergillus transformant of the variant and the wild type Penicillium oxalicum glucoamylase were cultivated in 6-well MT plates containing 4× diluted YP-2% maltose medium supplemented with 10 mM sodium acetate buffer, pH4.5, at 32° C. for 1 week.\nThe culture supernatants were loaded on SDS-PAGE."}, "[1]": {"assay": "Glucoamylase activity (AGU) of variant compared to parent", "format": "biochemical", "conditions": "37° C., pH 4.3, maltose 100 mM", "experimental": "The Novo Glucoamylase Unit (AGU) is defined as the amount of enzyme, which hydrolyzes 1 micromole maltose per minute under the standard conditions 37° C., pH 4.3, substrate: maltose 23.2 mM, buffer: acetate 0.1 M, reaction time 5 minutes.\nAn autoanalyzer system may be used. Mutarotase is added to the glucose dehydrogenase reagent so that any alpha-D-glucose present is turned into beta-D-glucose. Glucose dehydrogenase reacts specifically with beta-D-glucose in the reaction mentioned above, forming NADH which is determined using a photometer at 340 nm as a measure of the original glucose concentration.\nThe glucoamylase activity measures as AGU as described above was checked for the purified enzymes of the wild type Penicillium oxalicum and the variant glucoamylase.\nThe Glucoamylase Unit (AGU) was defined as the amount of enzyme, which hydrolyzes 1 micromole maltose per minute under the standard conditions (37° C., pH 4.3, substrate: maltose 100 mM, buffer: acetate 0.1 M, reaction time 6 minutes)."}, "[2]": {"assay": "Penicillium oxalicum glucoamylase: pH optimum", "format": "biochemical", "conditions": "for Relative activity (%): pH optimum", "experimental": "(§1) Substrate: 1% soluble starch (Sigma S-9765) in deionized water\n(§2) 20 microL soluble starch and 50 microL acetate buffer at pH 5.3 were mixed. 30 microL enzyme solution (50 micro g enzyme protein/ml) was added to a final volume of 100 microL followed by incubation at 37° C. for 15 min.\n(§3) The glucose concentration was determined by Wako kits.\n(§4) pH optimum. To assess the pH optimum of the Penicillium oxalicum glucoamylase the Reaction condition assay described above was performed at pH 2.0, 3.0, 3.5, 4.0, 4.5, 5.0, 6.0 7.0, 8.0, 9.0, 10.0 and 11.0. Instead of using the acetate buffer described in the Reaction condition assay the following buffer was used 100 mM Succinic acid, HEPES, CHES, CAPSO, 1 mM CaCl2, 150 mM KCl, 0.01% Triton X-100, pH adjusted to 2.0, 3.0, 3.5, 4.0, 4.5, 5.0, 6.0 7.0, 8.0, 9.0, 10.0 or 11.0 with HCl or NaOH."}, "aspergillopepsin I": {"tested_on": "aspergillopepsin I", "assay": "PE001 protease stability, SDS-PAGE after protease treatment", "format": "biochemical", "experimental": "(§5) 40 μl enzyme solutions (1 mg/ml) in 50 mM sodium acetate buffer, pH 4.5, were mixed with 1/10 volume of 1 mg/ml protease solutions such as aspergillopepsin I described in Biochem J. 1975 April; 147(1):45-53, or the commercially available product from Sigma and aorsin described in Biochemical journal [0264-6021] Ichishima yr: 2003 vol:371 iss:Pt 2 pg:541 and incubated at 4 or 32° C. overnight. As a control experiment, H2O was added to the sample instead of proteases. The samples were loaded on SDS-PAGE to see if the glucoamylases are cleaved by proteases."}, "aorsin": {"target": "T1, aorsin (Aspergillus oryzae, UniProt Q8NK92)", "T1 sequence (Q8NK92 216-652)": "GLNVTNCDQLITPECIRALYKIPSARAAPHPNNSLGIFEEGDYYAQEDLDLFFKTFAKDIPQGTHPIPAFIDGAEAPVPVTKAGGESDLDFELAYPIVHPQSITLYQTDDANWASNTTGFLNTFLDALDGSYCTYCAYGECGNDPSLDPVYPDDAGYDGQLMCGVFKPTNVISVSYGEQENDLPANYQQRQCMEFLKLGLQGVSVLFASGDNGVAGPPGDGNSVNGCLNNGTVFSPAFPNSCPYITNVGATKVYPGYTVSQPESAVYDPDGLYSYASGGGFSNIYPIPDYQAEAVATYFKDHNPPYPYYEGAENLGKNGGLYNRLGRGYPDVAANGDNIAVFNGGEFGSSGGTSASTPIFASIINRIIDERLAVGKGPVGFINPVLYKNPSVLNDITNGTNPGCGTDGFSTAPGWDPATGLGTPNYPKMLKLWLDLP", "assay": "PE001 protease stability, SDS-PAGE after protease treatment", "format": "biochemical", "experimental": "as §5"}, "[3]": {"assay": "Penicillium oxalicum glucoamylase: pH stability", "format": "biochemical", "experimental": "as §1, §2, §3, §4\nTo assess the […] of the Penicillium oxalicum glucoamylase the Reaction condition assay was modifed in that the enzyme solution (50 micro g/mL) was preincubated for 20 hours in buffers with pH 2.0, 3.0, 3.5, 4.0, 4.5, 5.0, 6.0 7.0, 8.0, 9.0, 10.0 and 11.0 using the buffers described under pH optimum. After preincubation, 20 microL soluble starch to a final volume of 100 microL was added to the solution and the assay was performed as described above."}, "[4]": {"assay": "Penicillium oxalicum glucoamylase: temperature optimum (Reaction condition assay)", "format": "biochemical", "conditions": "for Relative activity (%): Temperature optimum", "experimental": "as §1\nReaction buffer: 0.1 M Acetate buffer at pH 5.3 Glucose concentration determination kit: Wako glucose assay kit (LabAssay glucose, WAKO, Cat#298-65701).\nTo assess the temperature optimum of the Penicillium oxalicum glucoamylase the “Reaction condition”-assay described above was performed at 20, 30, 40, 50, 60, 70, 80, 85, 90 and 95° C."}, "[5]": {"conditions": "culture supernatant, 32° C., 1 week"}, "[6]": {"conditions": "aspergillopepsin I, incubation 32° C. overnight"}}, "data": [{"molecule": "Penicillium oxalicum glucoamylase: wild type Penicillium oxalicum glucoamylase disclosed in SEQ ID NO: 9 (protein, listed as Penicillium oxalicum) MRLTLLSGVAGVLCAGQLTAARPDPKGGNLTPFIHKEGERSLQGILDNLGGRGKKTPGTAAGLFIASPNTENPNYYYTWTRDSALTAKCLIDLFEDSRAKFPIDRKYLETGIRDYVSSQAILQSVSNPSGTLKDGSGLGEPKFEIDLNPFSGAWGRPQRDGPALRATAMITYANYLISHGQKSDVSQVMWPIIANDLAYVGQYWNNTGFDLWEEVDGSSFFTIAVQHRALVEGSQLAKKLGKSCDACDSQPPQILCFLQSFWNGKYITSNINTQASRSGIDLDSVLGSIHTFDPEAACDDATFQPCSARALANHKVYVDSFRSIYKINAGLAEGSAANVGRYPEDVYQGGNPWYLATLGASELLYDALYQWDRLGKLEVSETSLSFFKDFDATVKIGSYSRNSKTYKKLTQSIKSYADGFIQLVQQYTPSNGSLAEQYDRNTAAPLSANDLTWSFASFLTATQRRDAVVPPSWGAKSANKVPTTCSASPVVGTYKAPTATFSSKTKCVPAKDIVPITFYLIENTYYGENVFMSGNITALGNWDAKKGFPLTANLYTQDQNLWFASVEFIPAGTPFEYKYYKVEPNGDITWEKGPNRVFVAPTGCPVQPHSNDVWQF", "values": [{"measurement": "cleavage by host proteases during fermentation", "setting": "host proteases", "value": "cleaved by host proteases during fermentation"}, {"measurement": "cleaved glucoamylase (ca. 60 kDa)", "setting": "host proteases; [5]", "value": 10, "unit": "%"}, {"measurement": "intact glucoamylase (ca. 70 kDa)", "setting": "host proteases; [5]", "value": 90, "unit": "%"}, {"measurement": "Relative specific activity AGU/mg", "setting": "[1]", "value": 100, "unit": "%"}, {"measurement": "pH of highest activity", "setting": "[2]; at the given conditions", "value": 5.0}, {"measurement": "activity maintained from pH 2 to 7", "setting": "[2]; pH 2 to 7", "value": "more than 50%"}, {"measurement": "Relative activity (%)", "setting": "[2]; pH 2.0", "value": 71.4, "unit": "%"}, {"measurement": "Relative activity (%)", "setting": "[2]; pH 3.0", "value": 78.6, "unit": "%"}, {"measurement": "Relative activity (%)", "setting": "[2]; pH 3.5", "value": 77.0, "unit": "%"}, {"measurement": "Relative activity (%)", "setting": "[2]; pH 4.0", "value": 91.2, "unit": "%"}, {"measurement": "Relative activity (%)", "setting": "[2]; pH 4.5", "value": 84.2, "unit": "%"}, {"measurement": "Relative activity (%)", "setting": "[2]; pH 5.0", "value": 100.0, "unit": "%"}, {"measurement": "Relative activity (%)", "setting": "[2]; pH 6.0", "value": 55.5, "unit": "%"}, {"measurement": "Relative activity (%)", "setting": "[2]; pH 7.0", "value": 66.7, "unit": "%"}, {"measurement": "Relative activity (%)", "setting": "[2]; pH 8.0", "value": 30.9, "unit": "%"}, {"measurement": "Relative activity (%)", "setting": "[2]; pH 9.0", "value": 17.8, "unit": "%"}, {"measurement": "Relative activity (%)", "setting": "[2]; pH 10.0", "value": 15.9, "unit": "%"}, {"measurement": "Relative activity (%)", "setting": "[2]; pH 11.0", "value": 16.1, "unit": "%"}, {"measurement": "intact glucoamylase (ca. 70 kDa)", "setting": "aspergillopepsin I; aspergillopepsin I, incubation 4° C. overnight", "value": 100, "unit": "%"}, {"measurement": "cleaved glucoamylase (ca. 60 kDa)", "setting": "aspergillopepsin I; [6]", "value": 10, "unit": "%"}, {"measurement": "intact glucoamylase (ca. 70 kDa)", "setting": "aspergillopepsin I; [6]", "value": 90, "unit": "%"}, {"measurement": "SDS-PAGE result after protease treatment", "setting": "aspergillopepsin I; proteases (aspergillopepsin I, aorsin)", "value": "degraded by proteases"}, {"measurement": "cleaved glucoamylase (ca. 60 kDa)", "setting": "aorsin; incubation 4° C. overnight", "value": 60, "unit": "%"}, {"measurement": "intact glucoamylase (ca. 70 kDa)", "setting": "aorsin; incubation 4° C. overnight", "value": 40, "unit": "%"}, {"measurement": "cleaved glucoamylase (ca. 60 kDa)", "setting": "aorsin; incubation 32° C. overnight", "value": 90, "unit": "%"}, {"measurement": "intact glucoamylase (ca. 70 kDa)", "setting": "aorsin; incubation 32° C. overnight", "value": 10, "unit": "%"}, {"measurement": "Relative activity (%)", "setting": "[3]; preincubated 20 hours at pH 2.0", "value": 17.4, "unit": "%"}, {"measurement": "Relative activity (%)", "setting": "[3]; preincubated 20 hours at pH 3.0", "value": 98.0, "unit": "%"}, {"measurement": "Relative activity (%)", "setting": "[3]; preincubated 20 hours at pH 3.5", "value": 98.0, "unit": "%"}, {"measurement": "Relative activity (%)", "setting": "[3]; preincubated 20 hours at pH 4.0", "value": 103.2, "unit": "%"}, {"measurement": "Relative activity (%)", "setting": "[3]; preincubated 20 hours at pH 4.5", "value": 100.0, "unit": "%"}, {"measurement": "Relative activity (%)", "setting": "[3]; preincubated 20 hours at pH 5.0", "value": 93.4, "unit": "%"}, {"measurement": "Relative activity (%)", "setting": "[3]; preincubated 20 hours at pH 6.0", "value": 71.2, "unit": "%"}, {"measurement": "Relative activity (%)", "setting": "[3]; preincubated 20 hours at pH 7.0", "value": 90.7, "unit": "%"}, {"measurement": "Relative activity (%)", "setting": "[3]; preincubated 20 hours at pH 8.0", "value": 58.7, "unit": "%"}, {"measurement": "Relative activity (%)", "setting": "[3]; preincubated 20 hours at pH 9.0", "value": 17.4, "unit": "%"}, {"measurement": "Relative activity (%)", "setting": "[3]; preincubated 20 hours at pH 10.0", "value": 17.0, "unit": "%"}, {"measurement": "Relative activity (%)", "setting": "[3]; preincubated 20 hours at pH 11.0", "value": 17.2, "unit": "%"}, {"measurement": "activity maintained at 95° C.", "setting": "[4]; 95° C.", "value": "more than 80%"}, {"measurement": "Relative activity (%)", "setting": "[4]; 20° C.", "value": 63.6, "unit": "%"}, {"measurement": "Relative activity (%)", "setting": "[4]; 30° C.", "value": 71.7, "unit": "%"}, {"measurement": "Relative activity (%)", "setting": "[4]; 40° C.", "value": 86.4, "unit": "%"}, {"measurement": "Relative activity (%)", "setting": "[4]; 50° C.", "value": 99.4, "unit": "%"}, {"measurement": "Relative activity (%)", "setting": "[4]; 60° C.", "value": 94.6, "unit": "%"}, {"measurement": "Relative activity (%)", "setting": "[4]; 70° C.", "value": 100.0, "unit": "%"}, {"measurement": "Relative activity (%)", "setting": "[4]; 80° C.", "value": 92.9, "unit": "%"}, {"measurement": "Relative activity (%)", "setting": "[4]; 85° C.", "value": 92.5, "unit": "%"}, {"measurement": "Relative activity (%)", "setting": "[4]; 90° C.", "value": 82.7, "unit": "%"}, {"measurement": "Relative activity (%)", "setting": "[4]; 95° C.", "value": 82.8, "unit": "%"}]}]}
